Test results as given in patent publication US20110059888A1.
[ ]: non-standard residue; d: D form. Phe(3-Me) = Cc1cccc(C[C@H](N)C(=O)O)c1; Phe(4-Me) = Cc1ccc(C[C@H](N)C(=O)O)cc1; Phe(2-Me) = Cc1ccccc1C[C@H](N)C(=O)O; Arg(Me) = CNC(=N)NCCC[C@H](N)C(=O)O; Dap(CONH2) = NC(=O)NC[C@H](N)C(=O)O; Ala(cPr) = N[C@@H](CC1CC1)C(=O)O; Hyp = O=C(O)[C@@H]1C[C@@H](O)CN1; αMeF = C[C@](N)(Cc1ccccc1)C(=O)O; Aad = N[C@@H](CCCC(=O)O)C(=O)O; Cha = N[C@@H](CC1CCCCC1)C(=O)O; Cit = NC(=O)NCCC[C@H](N)C(=O)O; Aib = CC(C)(N)C(=O)O

B1: des(1)-Ac-[D-Tyr2,Hyp3,Thr5,αMePhe6,Arg(Me)9,Trp10]MS10 (peptide)
peptide: Ac-[dY][Hyp]NT[αMeF]GL[Arg(Me)]W-NH2
SMILES: CNC(=N)NCCC[C@H](NC(=O)[C@H](CC(C)C)NC(=O)CNC(=O)[C@](C)(Cc1ccccc1)NC(=O)[C@@H](NC(=O)[C@H](CC(N)=O)NC(=O)[C@@H]1C[C@@H](O)CN1C(=O)[C@@H](Cc1ccc(O)cc1)NC(C)=O)[C@@H](C)O)C(=O)N[C@@H](Cc1c[nH]c2ccccc12)C(N)=O
B2: des(1)-Ac-[D-Tyr2,Hyp3,Thr5,Ser7,Arg(Me)9,Trp10]MS10 (peptide)
peptide: Ac-[dY][Hyp]NTFSL[Arg(Me)]W-NH2
SMILES: CNC(=N)NCCC[C@H](NC(=O)[C@H](CC(C)C)NC(=O)[C@H](CO)NC(=O)[C@H](Cc1ccccc1)NC(=O)[C@@H](NC(=O)[C@H](CC(N)=O)NC(=O)[C@@H]1C[C@@H](O)CN1C(=O)[C@@H](Cc1ccc(O)cc1)NC(C)=O)[C@@H](C)O)C(=O)N[C@@H](Cc1c[nH]c2ccccc12)C(N)=O
B3: des(1)-Ac-[D-Tyr2,Asp3,Thr5,Cha6,Ala(cPr)8,Arg(Me)9,Trp10]MS10 (peptide)
peptide: Ac-[dY]DNT[Cha]G[Ala(cPr)][Arg(Me)]W-NH2
SMILES: CNC(=N)NCCC[C@H](NC(=O)[C@H](CC1CC1)NC(=O)CNC(=O)[C@H](CC1CCCCC1)NC(=O)[C@@H](NC(=O)[C@H](CC(N)=O)NC(=O)[C@H](CC(=O)O)NC(=O)[C@@H](Cc1ccc(O)cc1)NC(C)=O)[C@@H](C)O)C(=O)N[C@@H](Cc1c[nH]c2ccccc12)C(N)=O
B4: des(1)-Ac-[D-Tyr2,Lys3,Thr5,Cha6,Ala(cPr)8,Arg(Me)9,Trp10]MS10 (peptide)
peptide: Ac-[dY]KNT[Cha]G[Ala(cPr)][Arg(Me)]W-NH2
modifications: not fully specified; printed as Ac-D-Tyr-Lys-Asn-Thr-Cha-Gly-Ala(cPr)-Arg(Me)-Trp-NH2
B5: des(1)-Ac-[D-Tyr2,Glu3,Thr5,Cha6,Ala(cPr)8,Arg(Me)9,Trp10]MS10 (peptide)
peptide: Ac-[dY]ENT[Cha]G[Ala(cPr)][Arg(Me)]W-NH2
SMILES: CNC(=N)NCCC[C@H](NC(=O)[C@H](CC1CC1)NC(=O)CNC(=O)[C@H](CC1CCCCC1)NC(=O)[C@@H](NC(=O)[C@H](CC(N)=O)NC(=O)[C@H](CCC(=O)O)NC(=O)[C@@H](Cc1ccc(O)cc1)NC(C)=O)[C@@H](C)O)C(=O)N[C@@H](Cc1c[nH]c2ccccc12)C(N)=O
B6: des(1)-Ac-[D-Tyr2,Aad3,Thr5,Cha6,Ala(cPr)8,Arg(Me)9,Trp10]MS10 (peptide)
peptide: Ac-[dY][Aad]NT[Cha]G[Ala(cPr)][Arg(Me)]W-NH2
SMILES: CNC(=N)NCCC[C@H](NC(=O)[C@H](CC1CC1)NC(=O)CNC(=O)[C@H](CC1CCCCC1)NC(=O)[C@@H](NC(=O)[C@H](CC(N)=O)NC(=O)[C@H](CCCC(=O)O)NC(=O)[C@@H](Cc1ccc(O)cc1)NC(C)=O)[C@@H](C)O)C(=O)N[C@@H](Cc1c[nH]c2ccccc12)C(N)=O
B7: des(1)-Ac-[D-Tyr2,Aib3,Thr5,Cha6,Ala(cPr)8,Arg(Me)9,Trp10]MS10 (peptide)
peptide: Ac-[dY][Aib]NT[Cha]G[Ala(cPr)][Arg(Me)]W-NH2
SMILES: CNC(=N)NCCC[C@H](NC(=O)[C@H](CC1CC1)NC(=O)CNC(=O)[C@H](CC1CCCCC1)NC(=O)[C@@H](NC(=O)[C@H](CC(N)=O)NC(=O)C(C)(C)NC(=O)[C@@H](Cc1ccc(O)cc1)NC(C)=O)[C@@H](C)O)C(=O)N[C@@H](Cc1c[nH]c2ccccc12)C(N)=O
B8: des(1)-Ac-[D-Tyr2,Hyp3,Alb4,Thr5,Arg(Me)9,Trp10]MS10 (peptide)
peptide: Ac-[dY][Hyp][Dap(CONH2)]TFGL[Arg(Me)]W-NH2
SMILES: CNC(=N)NCCC[C@H](NC(=O)[C@H](CC(C)C)NC(=O)CNC(=O)[C@H](Cc1ccccc1)NC(=O)[C@@H](NC(=O)[C@H](CNC(N)=O)NC(=O)[C@@H]1C[C@@H](O)CN1C(=O)[C@@H](Cc1ccc(O)cc1)NC(C)=O)[C@@H](C)O)C(=O)N[C@@H](Cc1c[nH]c2ccccc12)C(N)=O

Each binder was assayed against human OT7T175 (metastin receptor) (human) (UniProt Q969F8) (assay: cell-based or functional assay).
Chain of UniProt Q969F8 (Q969F8 whole entry L364H): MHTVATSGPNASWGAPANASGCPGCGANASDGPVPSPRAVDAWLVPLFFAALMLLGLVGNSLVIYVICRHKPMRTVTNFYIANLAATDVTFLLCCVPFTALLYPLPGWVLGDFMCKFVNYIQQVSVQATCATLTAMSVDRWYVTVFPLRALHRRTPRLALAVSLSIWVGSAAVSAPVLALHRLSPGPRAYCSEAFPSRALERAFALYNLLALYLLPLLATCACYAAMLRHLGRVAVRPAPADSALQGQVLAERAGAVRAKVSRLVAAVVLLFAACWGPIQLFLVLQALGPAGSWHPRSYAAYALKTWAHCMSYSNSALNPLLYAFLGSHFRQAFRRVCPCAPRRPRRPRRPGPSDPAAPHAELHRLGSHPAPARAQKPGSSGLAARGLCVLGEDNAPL

| Binder | Specific Activity (EC50 of test compound based on EC50 of Metastin (45-54); intracellular calcium, FLIPR) (ratio to EC50 of Metastin (45-54)) |
| --- | --- |
| Ac-[dY]ENT[Cha]GL[Arg(Me)]W-NH2 (also: Gly7-Leu8 amide bond replaced by (E)-CH═CH-) [des(1)-Ac-[D-Tyr2,Glu3,Thr5,Cha6,Gly7Ψ((E)CH═CH)Leu8,Arg(Me)9,Trp10]MS10] | 0.5 |
| B1 | 3.8 |
| Ac-[dY][Hyp][Cit]T[Cha]GL[Arg(Me)]W-NH2 (also: Gly7Ψ((E)CH═CH)Leu8: amide between Gly and Leu replaced by (E) alkene) [des(1)-Ac-[D-Tyr2,Hyp3,Cit4,Thr5,Cha6,Gly7Ψ((E)CH═CH)Leu8,Arg(Me)9,Trp10]MS10] | 0.9 |
| B2 | 0.6 |
| B3 | 2.5 |
| Ac-[dY][Hyp]NT[Phe(4-Me)]GL[Arg(Me)]W-NH2 [des(1)-Ac-[D-Tyr2,Hyp3,Thr5,Phe(4Me)6,Arg(Me)9,Trp10]MS10] | 0.9 |
| Ac-[dY][Hyp]NTFG[Ala(cPr)][Arg(Me)]W-NH2 [des(1)-Ac-[D-Tyr2,Hyp3,Thr5,Ala(cPr)8,Arg(Me)9,Trp10]MS10] | 0.8 |
| Ac-[dY][Hyp]NT[Phe(2-Me)]GL[Arg(Me)]W-NH2 [des(1)-Ac-[D-Tyr2,Hyp3,Thr5,Phe(2Me)6,Arg(Me)9,Trp10]MS10] | 0.7 |
| Ac-[dY][Hyp]NT[Cha]GL[Arg(Me)]W-NH2 (also: Gly6-Leu7 amide replaced by (E)CH=CH) [des(1)-Ac-[D-Tyr2,Hyp3,Thr5,Cha6,Gly7Ψ((E)CH═CH)Leu8,Arg(Me)9,Trp10]MS10] | 0.6 |
| B4 | 0.7 |
| Ac-[dY][Hyp][Dap(CONH2)]TFGL[Arg(Me)]W-NH2 (also: Gly7Ψ((E)CH═CH)Leu8: amide between Gly and Leu replaced by (E) alkene) [des(1)-Ac-[D-Tyr2,Hyp3,Alb4,Thr5,Gly7Ψ((E)CH═CH)Leu8,Arg(Me)9,Trp10]MS10] | 0.6 |
| Ac-[dY][Hyp]ET[Cha]GL[Arg(Me)]W-NH2 (also: Gly7Ψ((E)CH═CH)Leu8: amide between Gly and Leu replaced by (E) alkene) [des(1)-Ac-[D-Tyr2,Hyp3,Glu4,Thr5,Cha6,Gly7Ψ((E)CH═CH)Leu8,Arg(Me)9,Trp10]MS10] | 4.6 |
| B5 | 0.4 |
| B6 | 1.1 |
| Ac-[dY]E[Dap(CONH2)]TFGL[Arg(Me)]W-NH2 (also: Gly7-Leu8 amide bond replaced by (E)-CH═CH-) [des(1)-Ac-[D-Tyr2,Glu3,Alb4,Thr5,Gly7Ψ((E)CH═CH)Leu8,Arg(Me)9,Trp10]MS10] | 0.5 |
| Ac-[dY][Hyp]NT[Cha]G[Ala(cPr)][Arg(Me)]W-NH2 [des(1)-Ac-[D-Tyr2,Hyp3,Thr5,Cha6,Ala(cPr)8,Arg(Me)9,Trp10]MS10] | 0.5 |
| Ac-[dY]E[Dap(CONH2)]T[Cha]GL[Arg(Me)]W-NH2 (also: Gly7-Leu8 amide bond replaced by (E)-CH═CH-) [des(1)-Ac-[D-Tyr2,Glu3,Alb4,Thr5,Cha6,Gly7Ψ((E)CH═CH)Leu8,Arg(Me)9,Trp10]MS10] | 0.5 |
| Ac-[dY][Hyp]NT[Phe(3-Me)]GL[Arg(Me)]W-NH2 [des(1)-Ac-[D-Tyr2,Hyp3,Thr5,Phe(3Me)6,Arg(Me)9,Trp10]MS10] | 0.8 |
| B7 | 0.6 |
| Ac-[dY][Hyp]QT[Cha]GL[Arg(Me)]W-NH2 (also: Gly7Ψ((E)CH═CH)Leu8: amide between Gly and Leu replaced by (E) alkene) [des(1)-Ac-[D-Tyr2,Hyp3,Gln4,Thr5,Cha6,Gly7Ψ((E)CH═CH)Leu8,Arg(Me)9,Trp10]MS10] | 1.4 |
| Ac-[dY]ENTFGL[Arg(Me)]W-NH2 (also: Gly7-Leu8 amide bond replaced by (E)-CH═CH-) [des(1)-Ac-[D-Tyr2,Glu3,Thr5,Gly7Ψ((E)CH═CH)Leu8,Arg(Me)9,Trp10]MS10] | 0.6 |
| Ac-[dY][Hyp]NTFAL[Arg(Me)]W-NH2 [des(1)-Ac-[D-Tyr2,Hyp3,Thr5,Ala7,Arg(Me)9,Trp10]MS10] | 0.5 |
| Ac-[dY][Hyp]NTFGL[Arg(Me)]W-NH2 (also: Phe5-Gly6 amide replaced by (R)CHOH-CH2) [des(1)-Ac-[D-Tyr2,Hyp3,Thr5,Phe6Ψ((R)CHOH-CH2)Gly7,Arg(Me)9,Trp10]MS10] | 0.8 |
| Ac-[dY][Hyp]NTFGL[Arg(Me)]W-NH2 (also: Gly6-Leu7 amide replaced by CH2CH2) [des(1)-Ac-[D-Tyr2,Hyp3,Thr5,Gly7Ψ(CH2CH2)Leu8,Arg(Me)9,Trp10]MS10] | 0.8 |
| Ac-[dY][Hyp][Dap(CONH2)]T[Cha]GL[Arg(Me)]W-NH2 (also: Gly7-Leu8 amide bond replaced by (E)-CH═CH-) [des(1)-Ac-[D-Tyr2,Hyp3,Alb4,Thr5,Cha6,Gly7Ψ((E)CH═CH)Leu8,Arg(Me)9,Trp10]MS10] | 0.4 |
| Ac-[dY][Hyp]NTFGL[Arg(Me)]W-NH2 (also: Phe5-Gly6 amide replaced by (R)CHOH-(E)CH=) [des(1)-Ac-[D-Tyr2,Hyp3,Thr5,Phe6Ψ((R)CHOH-(E)CH=)Gly7,Arg(Me)9,Trp10]MS10] | 1.4 |
| B8 | 0.5 |
| Ac-[dY][Hyp]NTFGL[Arg(Me)]W-NH2 (also: Gly6-Leu7 amide replaced by (E)CH=CH) [des(1)-Ac-[D-Tyr2,Hyp3,Thr5,Gly7Ψ((E)CH═CH)Leu8,Arg(Me)9,Trp10]MS10] | 0.6 |
